Assay results taken from patent publication US20230365685A1.

Key:
[1] = molecular target: biotinylated human TIM-3 (human) (UniProt Q8TDQ0); experiment: competition ELISA: antibody coated, biotinylated human TIM-3 preincubated with competitor 4H2
[2] = molecular target: biotinylated human TIM-3 (human) (UniProt Q8TDQ0); experiment: competition ELISA: antibody coated, biotinylated human TIM-3 preincubated with competitor 16H1
[3] = molecular target: biotinylated human TIM-3 (human) (UniProt Q8TDQ0); experiment: competition ELISA: antibody coated, biotinylated human TIM-3 preincubated with competitor 19D11
[4] = molecular target: biotinylated human TIM-3 (human) (UniProt Q8TDQ0); experiment: competition ELISA: antibody coated, biotinylated human TIM-3 preincubated with competitor 3E6
[5] = molecular target: biotinylated human TIM-3 (human) (UniProt Q8TDQ0); experiment: competition ELISA: antibody coated, biotinylated human TIM-3 preincubated with competitor MBG453
[6] = molecular target: biotinylated human TIM-3 (human) (UniProt Q8TDQ0); experiment: competition ELISA: antibody coated, biotinylated human TIM-3 preincubated with competitor TSR022
[7] = molecular target: biotinylated human TIM-3 (human) (UniProt Q8TDQ0); experiment: competition ELISA: antibody coated, biotinylated human TIM-3 preincubated with competitor CH 10#
[8] = molecular target: biotinylated human TIM-3 (human) (UniProt Q8TDQ0); experiment: competition ELISA: antibody coated, biotinylated human TIM-3 preincubated with competitor CH 11#

inhibit percentage [1] | inhibit percentage [2] | inhibit percentage [3] | inhibit percentage [4] | inhibit percentage [5] | inhibit percentage [6] | inhibit percentage [7] | inhibit percentage [8] | Binder
98.1% | 70.2% | 0% | 95.8% | 99.1% | 100% | 40.5% | 0% | TSR022 (antibody, INN chains, looked up, V domains shown) VH: EVQLLESGGGLVQPGGSLRLSCAAASGFTFSSYDMSWVRQAPGKGLDWVSTISGGGTYTYYQDSVKGRFTISRDNSKNTLYLQMNSLRAEDTAVYYCASMDYWGQGTTVTVSS VL: DIQMTQSPSSLSASVGDRVTITCRASQSIRRYLNWYHQKPGKAPKLLIYGASTLQSGVPSRFSGSGSGTDFTLTISSLQPEDFAVYYCQQSHSAPLTFGGGTKVEIK
95.9% | 99.2% | 4.39% | 94.3% | 100% | 94.8% | 15.8% | 8.29% | MBG453 (antibody, INN chains, looked up, V domains shown) VH: QVQLVQSGAEVKKPGSSVKVSCKASGYTFTSYNMHWVRQAPGQGLEWMGDIYPGNGDTSYNQKFKGRVTITADKSTSTVYMELSSLRSEDTAVYYCARVGGAFPMDYWGQGTTVTVSS VL: AIQLTQSPSSLSASVGDRVTITCRASESVEYYGTSLMQWYQQKPGKAPKLLIYAASNVESGVPSRFSGSGSGTDFTLTISSLQPEDFATYFCQQSRKDPSTFGGGTKVEIKR
